From article PMC8865534

Target: NHE1-ECL1-rIgG, the first extracellular loop of the ALV-J receptor NHE1 fused to rabbit IgG Fc (expressed in DF-1 cells) (chicken)

Substance: Env protein (envelope glycoprotein, gp85-gp37) of ALV-J strain TBC-J6, wild type (natural protein)
- reduction of ALV-J infection (p27 mRNA level by qPCR) of DF-1 cells transfected with 250 ng pCAGGS-env(wt) for 2 days; the receptor is the endogenous NHE1 of DF-1 cells: 91%
